{
  "source": "patent US9580508B2",
  "about": "“Bispecific EGFR/c-Met antibodies” (Janssen Biotech, Inc., priority 2012, dated 2017)",
  "molecules": {"B1": {"name": "ECB39: bispecific FN3 with albumin binding domain: P53A1R5-17v2/P114AR7P94-A3, SEQ ID NO: 121 (protein)", "chain": "MLPAPKNLVVSEVTEDSARLSWADPHGFYDSFLIQYQESEKVGEAIVLTVPGSERSYDLTGLKPGTEYTVSIYGVHNVYKDTNMRGLPLSAIFTTAPAPAPAPAPLPAPKNLVVSRVTEDSARLSWTAPDAAFDSFWIRYFEFLGSGEAIVLTVPGSERSYDLTGLKPGTEYVVNIMGVKGGKISPPLSAIFTTAPAPAPAPAPLAEAKVLANRELDKYGVSDYYKNLINNAKTVEGVKALLDEILAALP", "modifications": "Bispecific EGFR/c-Met binding molecule"}, "B2": {"name": "ECB38: bispecific FN3 with albumin binding domain: P54AR4-83v2/P114AR7P94-A3, SEQ ID NO: 120 (protein)", "chain": "MLPAPKNLVVSEVTEDSARLSWDDPWAFYESFLIQYQESEKVGEAIVLTVPGSERSYDLTGLKPGTEYTVSIYGVHNVYKDTNMRGLPLSAIFTTAPAPAPAPAPLPAPKNLVVSRVTEDSARLSWTAPDAAFDSFWIRYFEFLGSGEAIVLTVPGSERSYDLTGLKPGTEYVVNIMGVKGGKISPPLSAIFTTAPAPAPAPAPLAEAKVLANRELDKYGVSDYYKNLINNAKTVEGVKALLDEILAALP", "modifications": "Bispecific EGFR/c-Met binding molecule"}, "B3": {"name": "ECB5: bispecific FN3: P53A1R5-17v2-(GGGGS)4-P114AR7P94-A3, SEQ ID NO: 54 (protein)", "chain": "MLPAPKNLVVSEVTEDSARLSWADPHGFYDSFLIQYQESEKVGEAIVLTVPGSERSYDLTGLKPGTEYTVSIYGVHNVYKDTNMRGLPLSAIFTTGGGGSGGGGSGGGGSGGGGSMLPAPKNLVVSRVTEDSARLSWTAPDAAFDSFWIRYFEFLGSGEAIVLTVPGSERSYDLTGLKPGTEYVVNIMGVKGGKISPPLSAIFTT", "modifications": "bispecific EGFR/cMet binding molecule"}},
  "key": {"[1]": {"test_system": "H1975 cells expressing human HGF", "assay": "H1975-HGF xenograft tumor efficacy", "format": "in vivo, nude mice", "conditions": "H1975-HGF NSCLC, day 16; mAbs 10 mg/kg BIWx3wk, erlotinib 50, afatinib 15 mg/kg QDx21d"}, "H1975 cells": {"test_system": "H1975 cells", "assay": "H1975 xenograft tumor efficacy", "format": "in vivo, nude mice", "conditions": "H1975 NSCLC, day 18, mAbs 10 mg/kg BIWx3wk, erlotinib 50, afatinib 15 mg/kg QDx21d"}, "[2]": {"test_system": "H292-HGF human lung cancer xenograft", "experimental": "(§1) The H292-HGF cells were maintained in vitro in RPMI1640 medium supplemented with fetal bovine serum (10% v/v), and L-glutamine (2 mM) at 37° C. in an atmosphere of 5% CO2 in air. The cells were routinely subcultured twice weekly by trypsin-EDTA treatment. The cells growing in an exponential growth phase were harvested and counted for tumor inoculation.\n(§2) Each mouse was inoculated subcutaneously at the right flank region with H292-HGF tumor cells (2×10^6) in 0.1 ml of PBS with Cultrex (1:1) for tumor development. The treatments were started when the mean tumor size reached 139 mm^3. […] The date of tumor cell inoculation was denoted as day 0.\n(§3) Before commencement of treatment, all animals were weighed and the tumor volumes were measured. Since the tumor volume can affect the effectiveness of any given treatment, mice were assigned into groups using randomized block design based upon their tumor volumes. […] The randomized block design was used to assign experimental animals to groups. First, the experimental animals were divided into homogeneous blocks according to their initial tumor volume. Secondly, within each block, randomization of experimental animals to treatments was conducted.\n(§4) At the time of routine monitoring, the animals were checked for any effects of tumor growth and treatments on normal behavior, such as mobility, visual estimation of food and water consumption, body weight gain/loss (body weights were measured twice weekly), eye/hair matting and any other abnormal effect.\n(§5) The endpoint was whether tumor growth can be delayed or tumor bearing mice can be cured. Tumor size was measured twice weekly in two dimensions using a caliper, and the volume was expressed in mm^3 using the formula: V=0.5 a×b^2 where a and b are the long and short diameters of the tumor, respectively. The tumor size was then used for calculations of both T-C and T/C values. T-C was calculated with T as the time (in days) required for the mean tumor size of the treatment group to reach 1000 mm^3, and C was the time (in days) for the mean tumor size of the control group to reach the same size. The T/C value (in percent) was an indication of antitumor efficacy; T and C were the mean tumor volume of the treated and control groups, respectively, on a given day. Complete tumor regression (CR) is defined as tumors that are reduced to below the limit of palpation (62.5 mm^3) Partial tumor regression (PR) is defined as tumors that are reduced from initial tumor volume. A minimum duration of CR or PR in 3 or more successive tumor measurements is required for a CP or PR to be considered durable.\n(§6) Animals for which the body weight loss exceeded 20%, or for which the mean tumor size of the group exceeds 2000 mm^3 were euthanized. The study was terminated after two weeks of observation after the final dose.\n(§7) Statistical analyses of difference in tumor volume among the groups were evaluated using a one-way ANOVA followed by individual comparisons using Games-Howell (equal variance not assumed). All data were analyzed using SPSS 18.0. p<0.05 was considered to be statistically significant."}, "[3]": {"test_system": "H292-HGF human lung cancer xenograft", "assay": "H292-HGF human lung cancer xenograft: bispecific molecule versus other EGFR and c-Met inhibitors", "conditions": "mouse, in vivo", "experimental": "as §1, §2, §3, §4, §5, §6, §7"}, "NCI-H3255 cells": {"test_system": "NCI-H3255 cells", "assay": "cells", "conditions": "Homo sapiens, […] HGF", "experimental": "NCI-H3255 and HCC-827 cells were plated as described above in “Inhibition of Human Tumor Cell Growth or Viability by Antibodies”. […] Some wells were left untreated with either HGF or antibodies as controls. Cells were incubated at 37° C., 5% CO2 for 72 hours, then viable cells were detected using CellTiter-Glo® reagent (Promega), and data were analyzed as described above in “Inhibition of Human Tumor Cell Growth (NCI-H292 growth and NCI-H322 growth assay)”."}, "[4]": {"test_system": "NCI-H292 cells expressing human HGF", "assay": "H292-HGF xenograft tumor efficacy with four bispecific FN3 molecules", "format": "in vivo, SCID Beige mice", "conditions": "25 mg/kg three times per week", "protocol": "One week after implantation, mice were stratified into groups with equivalent tumor volumes (mean tumor volume=77.9+/−1.7 mm^3) Mice were dosed three times per week with the bispecific molecules and tumor volumes were recorded twice weekly."}, "[5]": {"conditions": "mouse, in vivo, ip", "experimental": "SCID Beige mice were subcutaneously inoculated with NCI-H292 cells expressing human HGF (2.0×10^6 cells in Cultrex (Trevigen) in a volume of 200 μL) on the dorsal flank of each animal. Tumor measurements were taken twice weekly until tumor volumes ranged between 150-250 mm^3. Mice were then given a single i.p. dose of bispecific EGFR/c-Met molecules (linked to an albumin binding domain to increase half-life) or PBS vehicle. At 6 h or 72 h after dosing, tumors were extracted and immediately frozen in liquid nitrogen. […] Tumors were weighed, cut into small pieces, and lysed in Lysing Matrix A tubes (LMA) containing RIPA buffer with HALT protease/phosphatase inhibitors (Pierce), 50 mM sodium fluoride (Sigma), 2 mM activated sodium orthovanadate (Sigma), and 1 mM PMSF (MesoScale Discovery). Lysates were removed from LMA matrix and centrifuged to remove insoluble protein. The soluble tumor protein was quantified with a BCA protein assay and diluted to equivalent protein levels in tumor lysis buffer. Phosphorylated c-Met, EGFR and ERK were measured using assay plates from MesoScale Discovery (according to Manufacturer's protocol and as described above)."}, "EGFR": {"molecular_target": "T1, EGFR (Homo sapiens, UniProt P00533)", "T1 construct": "endogenous in cells; host or cells: NCI-H441", "assay": "Inhibition of EGFR phosphorylation in NCI-H441 cells", "format": "cell-based", "protocol": "NCI-H292, NCI-H441, or NCI-H596 cells were plated in 96 well plates in RPMI medium containing 10% FBS. 24 hours later, medium was replaced with serum free RPMI. […] Cells were treated for 1 h with the monospecific or bispecific molecules and then stimulated with EGF, HGF, or a combination of EGF and HGF for 15 minutes at 37° C., 5% CO2. Cells were lysed with MSD Lysis Buffer and cell signaling was assessed using appropriate MSD Assay plates, according to manufacturer's instructions, as described above."}},
  "note": "Entries after “also recorded” stand apart in the source; their conditions may differ. Like-named read-outs stand apart in the source and are kept apart here.",
  "data": [
    {"molecule": "CN(C)C/C=C/C(=O)Nc1cc2c(Nc3ccc(F)c(Cl)c3)ncnc2cc1O[C@H]1CCOC1", "note": "[afatinib]", "values": [
      {"measurement": "% TGI (day of study); compared to PBS vehicle", "setting": "[1]", "result": "29 (16) %"},
      {"measurement": "% TGI (day of study); compared to PBS vehicle", "setting": "H1975 cells", "result": "57 (18) %"},
      {"measurement": "% TGI (day of study); compared to PBS vehicle", "setting": "H1975 cells; listed as Afatinib", "result": 57, "unit": "%"}
    ]},
    {"molecule": "C[C@@H](Oc1cc(-c2cnn(C3CCNCC3)c2)cnc1N)c1c(Cl)ccc(F)c1Cl", "note": "[crizotinib, reference compound]", "values": [
      {"measurement": "Tumor volume (mm^3)", "setting": "[2]; day 7 (start of treatment)", "result": "140 ± 9", "unit": "mm^3"},
      {"measurement": "Antitumor activity / response", "setting": "[2]; mouse, in vivo", "result": "no antitumor activity"},
      {"measurement": "T − C (days) at 1000 mm^3", "setting": "[2]; tumor growth delay vs vehicle", "result": -1, "unit": "days"},
      {"measurement": "Tolerability / body weight loss", "setting": "[3]", "result": "More severe body weight loss"}
    ]},
    {"molecule": "C#Cc1cccc(Nc2ncnc3cc(OCCOC)c(OCCOC)cc23)c1", "note": "[erlotinib]", "values": [
      {"measurement": "Tolerability / body weight loss", "setting": "[3]", "result": "More severe body weight loss"},
      {"measurement": "IC50", "setting": "NCI-H3255 cells; NCI-H3255, NCI-H3255, low attachment culture", "result": 47.1, "unit": "nM"},
      {"measurement": "IC50", "setting": "NCI-H3255 cells; NCI-H3255, NCI-H3255, standard 2D culture", "result": 122, "unit": "nM"},
      {"measurement": "% TGI (day of study); compared to PBS vehicle", "setting": "[1]", "result": "20 (16) %"},
      {"measurement": "% TGI (day of study); compared to PBS vehicle", "setting": "H1975 cells", "result": "9 (18) %"}
    ]},
    {"molecule": "B1", "values": [
      {"measurement": "Tumor growth inhibition", "setting": "[4]", "result": "showed the most efficacy"},
      {"measurement": "Tumor accumulation", "setting": "[5]", "result": "significantly more tumor accumulation at 6 hours relative to the other molecules"}
    ]},
    {"molecule": "B2", "values": [
      {"measurement": "Mice in which the treatment was tolerated", "setting": "[2]; 25 mg/kg, 3 times/week×3 weeks", "result": "7 out of 10"},
      {"measurement": "Tumor volume (mm^3)", "setting": "[2]; day 7 (start of treatment)", "result": "137 ± 7", "unit": "mm^3"},
      {"measurement": "Tumor volume (mm^3)", "setting": "[2]; day 9", "result": "142 ± 7", "unit": "mm^3"},
      {"measurement": "Tumor volume (mm^3)", "setting": "[2]; day 13", "result": "83 ± 6", "unit": "mm^3"},
      {"measurement": "Tumor volume (mm^3)", "setting": "[2]; day 16", "result": "44 ± 7", "unit": "mm^3"},
      {"measurement": "Tumor volume (mm^3)", "setting": "[2]; day 20", "result": "30 ± 6", "unit": "mm^3"},
      {"measurement": "Tumor volume (mm^3)", "setting": "[2]; day 27", "result": "21 ± 5", "unit": "mm^3"},
      {"measurement": "Tumor volume (mm^3)", "setting": "[2]; day 30", "result": "23 ± 6", "unit": "mm^3"},
      {"measurement": "Tolerability / body weight loss", "setting": "[2]; mouse, in vivo", "result": "Slight toxicity"},
      {"measurement": "Antitumor activity / response", "setting": "[2]; mouse, in vivo, listed as bispecific EGFR/c-Met molecule", "result": "complete tumor regression (CR) in all mice; also recorded: complete response"},
      {"measurement": "Tumor growth inhibition", "setting": "[4]", "result": "showed the most efficacy"}
    ]},
    {"molecule": "B3", "values": [
      {"measurement": "Fold decrease of IC50 for inhibition of EGFR phosphorylation, bispecific vs monospecific EGFR-binding FN3 domain", "setting": "EGFR", "result": 30, "unit": "fold"}
    ]}
  ]
}
